# According to paper PMC8524320:
# No end group written: not given here. *: point of attachment. TAMRA = 5-carboxytetramethylrhodamine, CN(C)c1ccc2c(-c3ccc(C(=O)*)cc3C(=O)[O-])c3ccc(N(C)C)cc3[o+]c2c1
# Legend:
# [1] = target: HLA-A*68:02^S88R on the surface of HeLaM-HLA-ABC^KO cells (human); assay: flow cytometry on cells; competition: surface MHC-I pre-loaded with 10 nM fluorescent peptide in the presence of TAPBPR (100 nM for HLA-A*68:02 WT, 10 nM for N86Q and S88R), washed, then 0, 100 nM or 1000 nM recombinant TAPBPR for 30 min; loss of bound peptide against no TAPBPR
# [2] = target: HLA-A*68:02^N86Q on the surface of HeLaM-HLA-ABC^KO cells (human); assay: as above
# [3] = target: HLA-A*68:02^WT on the surface of HeLaM-HLA-ABC^KO cells (human); assay: as above
# [4] = target: HLA-A*68:02^S88R on the surface of HeLaM-HLA-ABC^KO cells (human); assay: flow cytometry on cells; competition: cells treated with 1 μM soluble TAPBPR for 30 min at 37 °C, washed, then 0, 10 nM or 100 nM high-affinity peptide for 15 min (methods: 30 min); loss of bound TAPBPR (PeTe-4) against no peptide
# [5] = target: HLA-A*68:02^N86Q on the surface of HeLaM-HLA-ABC^KO cells (human); assay: as above
# [6] = target: HLA-A*68:02^WT on the surface of HeLaM-HLA-ABC^KO cells (human); assay: as above
molecule,measurement,setting,value
"recombinant soluble TAPBPR^WT (lumenal domains, C-terminal His6) (from UniProt Q9BX59 19-405) (domain or fragment)",% loss of pre-loaded YVVPFVAK*V in the presence of TAPBPR (up to),[1],50%
same,% of pre-loaded ETVSK*QSNV dissociated by 100 nM TAPBPR,[1],75%
same,% of pre-loaded ETVSK*QSNV dissociated by 1 μM TAPBPR,[1],> 90%
same,% loss of pre-loaded YVVPFVAK*V in the presence of TAPBPR (up to),[2],30%
same,% of pre-loaded ETVSK*QSNV dissociated by 100 nM TAPBPR,[2],50%
same,% of pre-loaded ETVSK*QSNV dissociated by 1 μM TAPBPR,[2],85%
same,% of pre-loaded ETVSK*QSNV dissociated by 1 μM TAPBPR,[3],30%
ETVSK(TAMRA)QSNV [ETVSK*QSNV (TAMRA-labelled peptide specific for HLA-A*68:02)],% of bound TAPBPR dissociated by the peptide,[4],60%
same,% of bound TAPBPR dissociated by the peptide,[5],70%
same,% of bound TAPBPR dissociated by the peptide,[6],85%
YVVPFVAK(TAMRA)V [YVVPFVAK*V (TAMRA-labelled peptide specific for HLA-A*68:02)],% of bound TAPBPR displaced by the peptide,[4],83%
same,% of bound TAPBPR displaced by the peptide,[5],86%
same,% of bound TAPBPR displaced by the peptide,[6],92%
